The data set concerns the molecule itself. The data set can be described thus: SEC + other: dynamic light scattering.

B1: Skap55 (Src-kinase-associated phosphoprotein of 55 kDa) (natural protein, UniProt Q86WV1 1-359, looked up)
chain: MQAAALPEEIRWLLEDAEEFLAEGLRNENLSAVARDHRDHILRGFQQIKARYYWDFQPQGGDIGQDSSDDNHSGTLGLSLTSDAPFLSDYQDEGMEDIVKGAQELDNVIKQGYLEKKSKDHSFFGSEWQKRWCVVSRGLFYYYANEKSKQPKGTFLIKGYGVRMAPHLRRDSKKESCFELTSQDRRSYEFTATSPAEARDWVDQISFLLKDLSSLTIPYEEDEEEEEKEETYDDIDGFDSPSCGSQCRPTILPGSVGIKEPTEEKEEEDIYEVLPDEEHDLEEDESGTRRKGVDYASYYQGLWDCHGDQPDELSFQRGDLIRILSKEYNMYGWWVGELNSLVGIVPKEYLTTAFEVEER
One may read the stoichiometry N as the number of molecules, sites or subunits per partner or assembly. In the case of B1, the “stoichiometry N” value was determined as 2.

The record behind these values is article PMC2628593 (Molecular cell, 2008).
